How the values were obtained:
GRIP1 = biological target: T1, GRIP1 (Mus musculus, UniProt Q61026); test: Whole cell co-immunoprecipitation in Cos-7 cells: HA-GRIP1; type: binding; settings: EtOH ± 1 μM Dex, 2 hr
T1 construct: expressed in transfected cells; host or cells: Cos-7
Experimental: FIG. 7C1-3 illustrate whole cell co-immunoprecipitation of STAMP, GR, and TIF2/GRIP1. Cos-7 cells that had been co-transfected with Flag/STAMP (or Flag itself), HA/GRIP1, and GR plasmids (10 μg of each/150 mm dish) for 48 hr were treated for 2 hr with EtOH±1 μM Dex before being lysed as described in Example 1. Lysate was either analyzed on SDS-PAGE gels or treated with anti-Flag antibody to immunoprecipitate Flag/STAMP. The pellets were separated on SDS-PAGE gels and Western blotted with anti-Flag (FIG. 7C1), anti-HA (FIG. 7C2), or anti-GR antibodies (FIG. 7C3). In each panel, lane 1=5.7% of input lysate, lane 2=IP pellet of Flag/STAMP, HA/GRIP1, and GR+EtOH, lane 3=IP pellet of Flag/STAMP, HA/GRIP1, and GR+Dex, and lane 4=control IP pellet of Flag, HA/GRIP1, and GR+EtOH. Similar results were obtained in a second experiment.
Immunoprecipitations were conducted as generally described in Wang et al. (2004) Mol. Endocrinol. 18: 1476-95, with slight modifications. The day before transfection, Cos-7 cells were seeded into 150 mm dishes at 200,000 cells per dish containing 20 ml of media. On the next day, about 30 μg of DNA/dish was transfected with 60 μl of FuGene reagent. […]

ERα = biological target: T2, ERα (Homo sapiens, UniProt P03372); test: Mammalian two-hybrid assay with VP16 full length receptor: ERα; type: cell-based; settings: 1 μM estradiol
T2 construct: plus VP16 fused to the indicated full length receptors; expressed in transfected cells; host or cells: CV-1
T2 sequence (P03372 1-595): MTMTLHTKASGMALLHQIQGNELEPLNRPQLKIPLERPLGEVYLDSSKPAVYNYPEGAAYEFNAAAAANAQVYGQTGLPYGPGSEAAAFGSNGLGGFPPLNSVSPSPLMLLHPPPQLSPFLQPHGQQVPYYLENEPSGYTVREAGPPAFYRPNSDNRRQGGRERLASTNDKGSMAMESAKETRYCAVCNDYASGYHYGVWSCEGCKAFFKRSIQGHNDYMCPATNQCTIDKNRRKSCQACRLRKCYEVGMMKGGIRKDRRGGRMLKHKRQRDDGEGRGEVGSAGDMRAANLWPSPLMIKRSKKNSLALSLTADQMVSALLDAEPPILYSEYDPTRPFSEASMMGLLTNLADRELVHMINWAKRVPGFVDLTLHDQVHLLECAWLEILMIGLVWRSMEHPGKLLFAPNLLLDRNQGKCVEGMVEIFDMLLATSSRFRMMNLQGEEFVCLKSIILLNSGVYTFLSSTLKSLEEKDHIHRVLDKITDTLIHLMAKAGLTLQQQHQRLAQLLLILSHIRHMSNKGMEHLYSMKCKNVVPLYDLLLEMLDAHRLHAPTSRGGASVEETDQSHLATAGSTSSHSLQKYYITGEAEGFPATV
Experimental: FIG. 6C1-3 illustrate the association of STAMP with assorted steroid/nuclear receptors, including glucocorticoid receptors (GRs), progesterone receptors (PRs), androgen receptors (ARs), estrogen receptors (ER α or β), PPARγ2 receptors, thyroid receptor beta (TR), and retinoid (α) receptors (RAR α or RXR α). Triplicate samples of CV-1 cells were transfected (as described for FIG. 6B) with GAL, or GAL fused to TIF2.4 or STAMP834C, plus VP16 fused to the indicated full length receptors and incubated with the appropriate steroid (1 μM Dex, 20 nM R5020, 1 nM R1881, 0.1 μM triiodothyronine, or 1 μM estradiol, roziglitazone, or 9-cis-retinoic acid). The average relative luciferase activities of 2-3 experiments±S.E.M. were then plotted. FIG. 6C1 illustrates the effects of STAMP association upon GR, PR and AR induced expression. FIG. 6C2 illustrates the effects of STAMP association upon ERα, ERβ and PPARγ2 induced expression. FIG. 6C3 illustrates the effects of STAMP association upon TR, RARα and RXRα induced expression.
These assays were conducted as described (He et al., 2002). […]

T1 sequence (Q61026 5-1462 limits assumed, one chain of several): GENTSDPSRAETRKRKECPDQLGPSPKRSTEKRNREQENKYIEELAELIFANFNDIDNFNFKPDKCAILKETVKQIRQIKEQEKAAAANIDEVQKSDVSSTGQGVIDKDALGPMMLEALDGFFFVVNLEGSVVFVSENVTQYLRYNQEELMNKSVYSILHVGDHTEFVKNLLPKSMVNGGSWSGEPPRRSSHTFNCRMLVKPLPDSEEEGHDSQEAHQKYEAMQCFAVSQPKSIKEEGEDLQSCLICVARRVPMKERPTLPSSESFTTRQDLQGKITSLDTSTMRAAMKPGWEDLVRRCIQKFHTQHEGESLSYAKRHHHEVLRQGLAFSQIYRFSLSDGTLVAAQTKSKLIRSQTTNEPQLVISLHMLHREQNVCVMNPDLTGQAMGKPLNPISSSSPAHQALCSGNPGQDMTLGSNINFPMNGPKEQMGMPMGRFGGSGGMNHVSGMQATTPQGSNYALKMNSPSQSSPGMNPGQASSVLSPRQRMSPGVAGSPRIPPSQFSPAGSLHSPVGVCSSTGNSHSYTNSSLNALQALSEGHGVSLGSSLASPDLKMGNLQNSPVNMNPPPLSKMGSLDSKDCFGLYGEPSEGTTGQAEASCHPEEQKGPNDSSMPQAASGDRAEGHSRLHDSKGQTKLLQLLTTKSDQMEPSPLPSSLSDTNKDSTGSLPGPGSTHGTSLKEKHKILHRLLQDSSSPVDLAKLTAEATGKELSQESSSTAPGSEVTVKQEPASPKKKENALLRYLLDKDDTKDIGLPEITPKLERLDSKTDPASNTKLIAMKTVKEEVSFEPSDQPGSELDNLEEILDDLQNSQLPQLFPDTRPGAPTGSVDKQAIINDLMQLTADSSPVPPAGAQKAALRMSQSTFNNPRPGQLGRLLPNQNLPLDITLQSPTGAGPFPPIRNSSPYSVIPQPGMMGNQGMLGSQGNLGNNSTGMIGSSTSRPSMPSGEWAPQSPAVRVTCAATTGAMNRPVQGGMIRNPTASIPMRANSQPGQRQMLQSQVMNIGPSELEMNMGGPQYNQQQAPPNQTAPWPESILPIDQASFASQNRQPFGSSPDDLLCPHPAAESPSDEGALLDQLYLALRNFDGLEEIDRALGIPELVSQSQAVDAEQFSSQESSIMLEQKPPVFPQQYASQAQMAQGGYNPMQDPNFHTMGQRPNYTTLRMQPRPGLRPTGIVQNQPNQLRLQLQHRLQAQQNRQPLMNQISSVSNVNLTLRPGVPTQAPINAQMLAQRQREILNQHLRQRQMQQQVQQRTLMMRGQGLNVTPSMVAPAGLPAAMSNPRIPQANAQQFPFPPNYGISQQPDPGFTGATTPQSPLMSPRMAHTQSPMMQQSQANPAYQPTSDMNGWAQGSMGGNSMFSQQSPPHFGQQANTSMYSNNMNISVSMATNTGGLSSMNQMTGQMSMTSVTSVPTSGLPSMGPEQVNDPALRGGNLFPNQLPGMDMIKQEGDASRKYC

B1: STAMP: SRC-1 and TIF2 Associated Modulatory Protein, 1277 amino acid human polypeptide, expressed from transfected plasmid (protein)
chain: MARDLEETASSSEDEEVISQEDHPCIMWTGGCRRIPVLVFHADAILTKDNNIRVIGERYHLSYKIVRTDSRLVRSILTAHGFHEVHPSSTDYNLMWTGSHLKPFLLRTLSEAQKVNHFPRSYELTRKDRLYKNIIRMQHTHGFKVFHILPQTFLLPAEYAEFCNSYSKDRGPWIVKPVASSRGRGVYLINNPNQISLEENILVSRYINNPLLIDDFKFDVRLYVLVTSYDPLVIYLYEEGLARFATVRYDQGAKNIRNQFMHLTNYSVNKKSGDYVSCDDPEVEDYGNKWSMSAMLRYLKQEGRDTTALMAHVEDLIIKTIISAELAIATACKTFVPHRSSCFELYGFDVLIDSTLKPWLLEVNLSPSLACDAPLDLKIKASMISDMFTVVGFVCQDPAQRASTRPIYPTFESSRRNPFQKPQRCRPLSASDAEMKNLVGSAREKGPGKLGGSVLGLSMEEIKVLRRVKEENDRRGGFIRIFPTSETWEIYGSYLEHKTSMNYMLATRLFQDRMTADGAPELKIESLNSKAKLHAALYERKLLSLEVRKRRRRSSRLRAMRPKYPVITQPAEMNVKTETESEEEEEVALDNEDEEQEASQEESAGFLRENQAKYTPSLTALVENTPKENSMKVREWNNKGGHCCKLETQELEPKFNLMQILQDNGNLSKMQARIAFSAYLQHVQIRLMKDSGGQTFSASWAAKEDEQMELVVRFLKRASNNLQHSLRMVLPSRRLALLERRRILAHQLGDFIIVYNKETEQMAEKKSKKKVEEEEEDGVNMENFQEFIRQASEAELEEVLTFYTQKNKSASVFLGTHSKISKNNNNYSDSGAKGDHPETIMEEVKIKPPKQQQTTEIHSDKLSRFTTSAEKEAKLVYSNSSSGPTATLQKIPNTHLSSVTTSDLSPGPCHHSSLSQIPSAIPSMPHQPTILLNTVSASASPCLHPGAQNIPSPTGLPRCRSGSHTIGPFSSFQSAAHIYSQKLSRPSSAKAGSCYLNKHHSGIAKTQKEGEDASLYSKRYNQSMVTAELQRLAEKQAARQYSPSSHINLLTQQVTNLNLATGIINRSSASAPPTLRPIISPSGPTWSTQSDPQAPENHSSSPGSRSLQTGGFAWEGEVENNVYSQATGVVPQHKYHPTAGSYQLQFALQQLEQQKLQSRQLLDQSRARHQAIFGSQTLPNSNLWTMNNGAGCRISSATASGQKPTTLPQKVVPPPSSCASLVPKPPPNHEQVLRRATSQKASKGSSAEGQLNGLQSSLNPAASVPITSSTDPAHTKI
co-immunoprecipitation of GRIP1 with Flag-STAMP by anti-Flag antibody (GRIP1): co-immunoprecipitated

B2: STAMP834C: STAMP fragment amino acids 834-1277, receptor interaction domain (RID) (protein)
chain: GDHPETIMEEVKIKPPKQQQTTEIHSDKLSRFTTSAEKEAKLVYSNSSSGPTATLQKIPNTHLSSVTTSDLSPGPCHHSSLSQIPSAIPSMPHQPTILLNTVSASASPCLHPGAQNIPSPTGLPRCRSGSHTIGPFSSFQSAAHIYSQKLSRPSSAKAGSCYLNKHHSGIAKTQKEGEDASLYSKRYNQSMVTAELQRLAEKQAARQYSPSSHINLLTQQVTNLNLATGIINRSSASAPPTLRPIISPSGPTWSTQSDPQAPENHSSSPGSRSLQTGGFAWEGEVENNVYSQATGVVPQHKYHPTAGSYQLQFALQQLEQQKLQSRQLLDQSRARHQAIFGSQTLPNSNLWTMNNGAGCRISSATASGQKPTTLPQKVVPPPSSCASLVPKPPPNHEQVLRRATSQKASKGSSAEGQLNGLQSSLNPAASVPITSSTDPAHTKI
interaction with estrogen receptor α (ERα): lack of interaction

Source: patent US7867500B2, “Cofactor that modulates steroid receptor activities” (The United States of America as represented by the …, priority 2004, dated 2011)
